This test deals with complement protein C1q (human) (UniProt P02745). The test can be described thus: cell-based or functional assay.
Sequence of UniProt P02745 (P02745 23-245 limits assumed, chain 1 of 3): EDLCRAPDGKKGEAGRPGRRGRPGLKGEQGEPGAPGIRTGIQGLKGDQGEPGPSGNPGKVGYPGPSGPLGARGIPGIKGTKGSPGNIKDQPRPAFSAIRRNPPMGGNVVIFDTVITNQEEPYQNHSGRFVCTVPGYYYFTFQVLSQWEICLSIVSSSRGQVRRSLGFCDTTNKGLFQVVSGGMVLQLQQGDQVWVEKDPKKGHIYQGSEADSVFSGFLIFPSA
Sequence of UniProt P02745 (P02746 28-253 limits assumed, chain 2 of 3, further chain): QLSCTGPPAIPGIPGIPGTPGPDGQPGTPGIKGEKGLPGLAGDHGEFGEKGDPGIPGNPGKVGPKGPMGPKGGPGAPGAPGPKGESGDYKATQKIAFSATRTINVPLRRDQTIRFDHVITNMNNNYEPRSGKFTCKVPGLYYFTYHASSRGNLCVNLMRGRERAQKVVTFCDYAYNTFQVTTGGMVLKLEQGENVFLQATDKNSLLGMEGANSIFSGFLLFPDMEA
Sequence of UniProt P02745 (P02747 29-245 limits assumed, chain 3 of 3, further chain): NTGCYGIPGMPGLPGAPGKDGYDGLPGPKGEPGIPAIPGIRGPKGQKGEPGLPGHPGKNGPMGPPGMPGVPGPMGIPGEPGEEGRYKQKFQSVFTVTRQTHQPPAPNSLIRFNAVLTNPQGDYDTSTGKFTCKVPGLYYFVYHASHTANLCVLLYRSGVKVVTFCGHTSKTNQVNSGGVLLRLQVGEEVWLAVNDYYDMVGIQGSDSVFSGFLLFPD

“Hu1D10-IgG1 double mutant S324N/I332F (antibody)”: the average fold-increase in the EC50 value compared with wild-type Hu1D10-IgG1 antibody (CDC) is 13 to 16 fold and the average fold-increase in the maximum percent lysis (CDC) was in the range of 1.3 to 1.4 fold.

The substance “Hu1D10-IgG1 double mutant S324N/I332M (antibody)” had an average fold-increase in the EC50 value compared with wild-type Hu1D10-IgG1 antibody (CDC) of 13 to 16 fold and an average fold-increase in the maximum percent lysis (CDC) of 1.3 to 1.4 fold.

With “Hu1D10-IgG1 double mutant S324W/I332F (antibody)”, the average fold-increase in the EC50 value compared with wild-type Hu1D10-IgG1 antibody (CDC) fell in the range of 13 to 16 fold and the average fold-increase in the maximum percent lysis (CDC) is 1.3 to 1.4 fold.

The substance “Hu1D10-IgG1 double mutant S324W/I332M (antibody)” returned an average fold-increase in the EC50 value compared with wild-type Hu1D10-IgG1 antibody (CDC) of 13 to 16 fold and an average fold-increase in the maximum percent lysis (CDC) of 1.3 to 1.4 fold.

“Hu1D10-IgG1 single mutant I332F (antibody)” showed a fold-increase in the EC50 value compared with wild-type Hu1D10-IgG1 antibody (CDC) of 2.5 fold and a fold-increase in the maximum percent lysis (CDC) of 1.2 to 1.4 fold.

Take “Hu1D10-IgG1 single mutant I332G (antibody)”: the fold-increase in the EC50 value compared with wild-type Hu1D10-IgG1 antibody (CDC) was 1.5 fold and the fold-increase in the maximum percent lysis (CDC) fell in the range of 1.2 to 1.4 fold.

“Hu1D10-IgG1 single mutant I332M (antibody)” gave a fold-increase in the EC50 value compared with wild-type Hu1D10-IgG1 antibody (CDC) of 2.5 fold and a fold-increase in the maximum percent lysis (CDC) of 1.2 to 1.4 fold.

The substance “Hu1D10-IgG1 single mutant S324M (antibody)” came in with a fold-increase in the EC50 value compared with wild-type Hu1D10-IgG1 antibody (CDC) of 2 fold.

In turn, “Hu1D10-IgG1 single mutant S324Y (antibody)” displayed a fold-increase in the EC50 value compared with wild-type Hu1D10-IgG1 antibody (CDC) of 2 fold.
